The subject of one data set is SKOV3 cells. Nature of the data set: In vitro cell binding/uptake assay, SKOV3 cells. In kind it is cell-based, human. The note with it: 37 KBq per well, 1×10^6 cells/well, 37°C, time points 5 min to 2 h, gamma counter, mean ± SD.
The nature of data set [1]: In vitro stability in saline/PBS at room temperature (radiochemical purity). The data set is classed as physicochemical. The note with it: ~3.7 MBq tracer in saline (method: PBS), 3 h of incubation, radio-HPLC.
Method: A volume of 80 μL 1 mol/L HEPES (pH 5.0) was added to 200 μL ^68GaCl3 (37-74 MBq) eluent, and then the mixture was incubated with 40 μL DOTA-c(NGR)2 stock solution in a water bath at 95°C for 10 min. Quality control was performed by radio-HPLC (Agilent Technologies, Santa Clara, CA, USA) with a VP-ODS C18 column (Shimadzu, Kyoto, Japan) and an online radioactivity detector (Zonkia Scientific Instruments Co., Ltd., Anhui Province, China). The mobile phase was composed of solvent A, 0.1% trifluoroacetic acid (TFA) in water, and solvent B, 0.1% TFA in acetronitrile. The flow rate was set at 1 mL/min, and the UV wavelength was set at 220 nm. The mobile phase was gradiently changed from 20% solvent B to 30% solvent B in 20 min.
To evaluate the in vitro stability, ~3.7 MBq of ^68Ga-DOTA-c(NGR)2 was incubated in phosphate-buffered saline (PBS) at room temperature or bovine serum at 37 °C, respectively. The radiochemical purity was determined at time points of 30 min and 1, 2 and 3 h.
Data set [2] is described as follows: MicroPET imaging and blocking, ES2 tumor-bearing nude mice. The note with it: female, BALB/c nude, mouse, in vivo, iv, total radioactivity. Here is the method:
(§1) The human OVCA ES2 and SKOV3 cells were obtained from Nanjing Keygen Biotech Co., Ltd. (Nanjing, China). ES2 cells were maintained as monolayer cultures in McCoy's medium 5A supplemented with 10% fetal bovine serum (FBS), and SKOV3 cells were cultured in RPMI-1640 medium supplemented with 10% FBS. Both cell lines were incubated at 37°C in a humidified atmosphere containing 5% CO2. Cells in log phase were harvested by trypsinization, washed with PBS twice and adjusted to 5×10^7/mL in PBS. A volume of 0.1 mL single-cell suspension was subcutaneously injected into the front flank of each female […] nude mouse (~4-6 weeks old, body weight of 18-25 g; Slac Laboratory Animal, Shanghai, China). Animal models were used for PET imaging experiments when xenografts grew to 500-1,000 mm^3. All animal-related studies were approved by the Institutional Animal Care and Use Committee of Soochow University.
(§2) Two groups of female Balb/c nude mice (n=6/group) bearing ES2 tumors were used to conduct static microPET imaging with an Inveon microPET scanner (Siemens Medical Solutions, Erlangen, Germany). The first group was injected with 7.4 MBq ^68Ga-DOTA-c(NGR)2 via tail vein under anesthesia with 1%-2% isoflurane, and a series of static image data, 10 min for each time point, were collected at 30 min, 1, 1.5, and 2 h post injection. For blocking studies, the second group of mice was injected with 100 μg unlabeled peptide in 100 μL saline via tail vein, immediately followed by administration of ^68Ga-DOTA-c(NGR)2, and then images were acquired at 30 min, 1, 1.5 and 2 h post-injection, each for 10 min. The obtained images were processed using Siemens Inveon Research Workplace 4.0 (IRW 4.0) and reconstructed using three-dimensional ordered-subset expectation maximization. Regions of interest (ROIs) were drawn over the tumor (T) and muscle of the contralateral forelimb, and the latter served as the background (B). Moreover, %ID/g of tumors and the T/B ratio were determined. The same studies were repeated in female Balb/c nude mice bearing SKOV3 tumors without the blocking experiments.

The nature of data set [3]: in vivo. The note with it: ICR, mouse, iv, 3.7 MBq, total radioactivity.
Method: (§3) Biodistribution studies were performed using 30 normal ICR (Institute of Cancer Research) mice (18-30 g; age, 4 weeks). […] The blood, muscle and other organs of interest (brain, heart, liver, lungs, spleen, pancreas, kidneys, stomach, small intestine and femur) were immediately harvested, weighed and counted with a gamma counter. Data were normalized to the time of injection and expressed as percent injected dose per gram (% ID/g).
For another data set, the system named is ES2 cells. Nature of the data set: In vitro cell binding/uptake assay, ES2 cells. In kind it is cell-based, human. The note with it: 37 KBq per well, 37°C.
Data set [4] is described as follows: in vivo. The note with it: female, BALB/c nude, mouse, iv, 7.4 MBq, total radioactivity. Here is the method:
as §1, §2

Structures are written as SMILES. Where two headings read alike, the source gives them in different places. Positions of bridges follow the written chain, without caps; N, C: chain ends. Non-standard residues stand in square brackets, D forms with d. Residues, ends and D or L forms follow the SMILES beside them. Chains are numbered I, II in the order given. *: point of attachment. DOTA = O=C(O)CN1CCN(CC(=O)O)CCN(CC(=O)*)CCN(CC(=O)O)CC1; PEG4 = NCCOCCOCCOCCOCCC(=O)O Bounds are passed on as bounds.

Method for normal ICR mice: as §3

`N=C(N)NCCC[C@@H]1NC(=O)CNC(=O)[C@H](CC(N)=O)NC(=O)[C@@H](NC(=O)CCOCCOCCOCCOCCNC(=O)CC[C@H](NC(=O)CCOCCOCCOCCOCCNC(=O)CN2CCN(CC(=O)O)CCN(CC(=O)O)CCN(CC(=O)O)CC2)C(=O)NCCOCCOCCOCCOCCC(=O)N[C@H]2CSSC[C@@H](C(=O)N[C@@H](Cc3ccc(O)cc3)C(=O)O)NC(=O)[C@H](CCCNC(=N)N)NC(=O)CNC(=O)[C@H](CC(N)=O)NC2=O)CSSC[C@@H](C(=O)N[C@@H](Cc2ccc(O)cc2)C(=O)O)NC1=O` [^68Ga-DOTA-c(NGR)2, metal not drawn] (I: {DOTA-PEG4}-E[PEG4]CNGRCY-OH / II: [PEG4]CNGRCY-OH; amide I:1-II:N; disulfide I:3-I:7, II:2-II:6): the “highest binding to SKOV3 cells” value in the data set on SKOV3 cells is on record as 1.79% ± 0.34. In addition, in data set [1], the “radiochemical purity after incubation in saline” value was over 96%. The tissue uptake at 1 h in data set [2] (7.4 MBq) worked out at 0.62 ± 0.09 %ID/g; in data set [2] (microPET, 100 μg unlabeled peptide i.v. immediately before tracer, 1 h post-injection, n=6, mean ± SD, read-out: uptake in ES2 tumors in the blocking experiment), 0.16 ± 0.03 %ID/g; in “in vivo [3]” (blood), 0.31 ± 0.05 %ID/g; in “in vivo [4]”, 0.32 ± 0.03 %ID/g. Further, the tissue uptake at 1.5 h in data set [2] (7.4 MBq) was 0.53 ± 0.08 %ID/g; in data set [2] (microPET, 100 μg unlabeled peptide i.v. immediately before tracer, 1.5 h post-injection, n=6, mean ± SD, read-out: uptake in ES2 tumors in the blocking experiment), 0.14 ± 0.02 %ID/g; in the data set “in vivo [4]”, 0.24 ± 0.05 %ID/g. The figures for the tissue to tissue ratio at 1 h (in data set [2]; in “in vivo [4]”) were 10.3 ± 0.26 and 3.99 ± 0.18, respectively. Also, the tissue to tissue ratio at 1.5 h in data set [2] stood at 8.04 ± 1.75; in the data set “in vivo [4]”, 4.24 ± 0.73. Further, the tissue uptake at 5 min is 7.44 ± 1.64 %ID/g in “in vivo [3]” (blood) and 16.7 ± 5.8 %ID/g in “in vivo [3]” (kidney). In addition, the “decrease of kidney uptake from peak” value with normal ICR mice (30 min post-injection versus 5 min) was “more than 50%”; in the data set on normal ICR mice (120 min post-injection versus 5 min), over 85%. For the same compound, in the data set with ES2 cells (1×10^6 cells/well, after 2 h of incubation, gamma counter, mean ± SD), the “highest binding to ES2 cells” value is listed as 3.00% ± 0.59. In the data set with ES2 cells, the “time to almost saturated binding to ES2 cells” value is given as at most 30 min.

These data come from PMC7738837, “Synthesis and evaluation of ^68Ga-labeled dimeric cNGR peptide for PET imaging of CD13 expression with ovarian cancer xenograft” (Journal of Cancer, 2021).
